According to publication PMC4382993:

The sequences below were run against T1, Fur (Escherichia coli O157:H7 (EDL933?)) (UniProt P0A9B1) (assay: EMSA). Conditions: BirA EMSA: 1 mM Tris-HCl pH 7.5, 0.1 mM EDTA, 0.2 mM DTT, 5 mM MgCl2, 10 mM KCl, 20 uM biotin, 1 mM ATP (DIG Gel Shift Kit); Fur EMSA: Invitrogen E33075 kit ….
T1 sequence: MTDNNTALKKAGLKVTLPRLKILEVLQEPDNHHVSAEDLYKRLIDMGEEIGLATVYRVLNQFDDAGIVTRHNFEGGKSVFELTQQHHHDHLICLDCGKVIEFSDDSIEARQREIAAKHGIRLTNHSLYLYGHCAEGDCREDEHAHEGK
With “AACAGAAGACTGGTTGCTGGAGAGTCCTTCTCGGGTATCGATTGTCGAAGATAAACATATTTATTATTTTCATTTATTGAAAGACTTTTTTACATCATTACCAGATGCTTGCTTTATTGATAGTGAGCAGAGAGAGAATGCATTATTAATGATTGGTAAAGTTATCGACTATAAGGAGGAAATTATTTGATATTAATTACTCAATAATTTTTTTGTTTTCCTGAGAAAAATTATCAAGAGGTATATAGATGGATACATCAAATGCAACATCCGTTGTTAATGTGAGTGCGAGTTCTTC (double strand) [LEE Box1 fragment]” the binding was “no binding”.
With “GACATTAAACTTGATCCTGGCGAGGCCAACAATATACAGCTTATTAATGATGCAAACACACCGCATAATAAAATTATAATAGAAAATGAATATATTAGAATAACTTTAGACCCATTAGAGCAAATAAGTATTTTATTGAATTCATTTAAAGATAATTATCTTAGCATTATTCAGGAATGATGATATGTCTCAATTAATGACCATTGGCTCACAGCCAATATTTTTAATTATTGTATTTTTTCTGTTATCATTACTGCCAA (double strand) [LEE Box5 fragment]” the binding was “no binding”.
For “GTTGGCGGCATCATTGTATCCGATGAAGATAATTGCTCTAGTTTATCAAATTGCTTATCGAGCAAAGAGGCGAGAGTATGTTGCATTATTGCTTTTGACATGTTTGCGCGATGATTATTATCTTTATGAAAAATTTGGCAAAGATACCACTTCTTATTAGACAGGAAAATACCCATTTGTTTATATTCGTTACTAACGGCCAGGATATTGCAGAGTCTGATAAATGTATCTGTTGGAACCTGACGAAAATCACCACTAAGCTCAATATATAGAACCCAGTAGTTTCCAAAATCG (double strand) [LEE Box4 fragment]”, the binding was “no binding”.
